Test results published in patent US20230372551A1, “RADIOLABELED LIGANDS FOR TARGETED PET/SPECT IMAGING AND METHODS OF THEIR USE” (priority 2020, published 2023).
Non-standard residues stand in square brackets, D forms with d. Residues, ends and D or L forms follow the SMILES beside them. *: point of attachment. X1 = CC(=O)N(O)CCCCCNC(=O)CCC(=O)N(O)CCCCCNC(=O)CCC(=O)N(O)CCCCCNC(=O)CCN1C(=O)CC(*)C1=O

Assays:
in vivo [1] = experiment: in vivo; design: species or system BALB/c mice; conditions: BALB/c, mouse, total radioactivity
Procedure: (§1) In vivo animal PET imaging and biodistribution. All injections were less than 200 μL with <10% EtOH in sterile PBS. PET images were obtained with the mice under anesthesia in an Inveon PET-CT at 4-144 h p.i. All images were analyzed using 3D Slicer (www.slicer.org). Dissections for ex vivo biodistribution were performed on mice after C02 asphyxiation or cervical dislocation while anesthetized at reported time points. Weight of the syringe prior to injection and after injection was used to determine the mass of injectate. Activity of the syringe prior to injection and after injection was used to determine the percent of injectate administered. The mass injected was corrected by the percent of radioactivity injected. Four to five aliquots (10 μL) were weighed and counted as internal standards for each study. All of the collected organs were counted using an automatic gamma counter (Wizard 3″, PerkinElmer, Waltham, MA). The total injected dose was found as the mass injected dose×fraction radioactivity injected×internal standard average counts/g. The percent injected dose (% ID) was determined as the counts for the tissue×100/total injected dose. The % ID/g was calculated as the % ID/tissue weight. The average and standard deviation of the % ID and % ID/g was determined using normal methods (n-1) for each set of mice.
(§2) 4T1 orthotopic BALB c mouse model. Animal studies were conducted according to MSKCC IACUC-approved animal protocol.
(§3) The 4T1 cells derived from spontaneous breast tumor in a BALB/c mouse (Karmanos Cancer Institute, Detroit, MI) were cultured in Dulbecco's modified Eagle's high glucose media with 10% FCS, 2 mM L-glutamine, penicillin, and streptomycin. The 4T1 cells derived from ATCC (Manassas, VA) were cultured in RPMI-1640 medium modified to contain 2 mM L-glutamine, 10 mM HEPES, 1 mM sodium pyruvate, 4.5 g/L glucose, 1.5 g/L NaHCO3, penicillin, and streptomycin.
(§4) The 4T1 cells described above were removed from the flasks containing the culture, concentrated, and resuspended in minimal media for cell counting. […]

4T1 tumors = experiment: in vivo; design: species or system BALB/c mice; conditions: mouse
Procedure: as §1, §2, §3, §4

in vivo [2] = conditions: male, athymic nude, mouse, 200 uCi (1.2 nmol), total radioactivity, ex vivo distribution
Procedure: All injections were less than 200 μL with <10% EtOH in sterile PBS. […] All images were analyzed using 3D Slicer (www.slicer.org). Dissections for ex vivo biodistribution were performed on mice after C02 asphyxiation or cervical dislocation while anesthetized at reported time points. Weight of the syringe prior to injection and after injection was used to determine the mass of injectate. Activity of the syringe prior to injection and after injection was used to determine the percent of injectate administered. The mass injected was corrected by the percent of radioactivity injected. Four to five aliquots (10 μL) were weighed and counted as internal standards for each study. All of the collected organs were counted using an automatic gamma counter (Wizard 3″, PerkinElmer, Waltham, MA). […] The percent injected dose (% ID) was determined as the counts for the tissue×100/total injected dose. The % ID/g was calculated as the % ID/tissue weight. The average and standard deviation of the % ID and % ID/g was determined using normal methods (n-1) for each set of mice.
Tissue samples were collected for additional ex vivo biodistribution studies to confirm the PET data results.

With `CC(=O)N(O)CCCCCNC(=O)CCC(=O)N(O)CCCCCNC(=O)CCC(=O)N(O)CCCCCNC(=O)CCN1C(=O)CC(SC[C@@H](NC(=O)[C@@H](C)N)C(=O)N[C@H](CC(=O)O)C(=O)N[C@H](CC(=O)O)C(=O)N[C@H](CCC(N)=O)C(=O)N[C@H](CC(N)=O)C(=O)N2CCC[C@@H]2C(=O)N[C@H](Cc2c[nH]c3ccccc23)C(=O)N[C@H](CCCNC(=N)N)C(=O)N[C@H](C)C(=O)N[C@H](Cc2ccc(O)cc2)C(=O)N[C@H](CC(C)C)C(=O)N[C@H](CC(=O)O)C(=O)N[C@H](CC(C)C)C(=O)N[C@H](CC(C)C)C(=O)N[C@H](Cc2ccccc2)C(=O)N2CCC[C@@H]2C(=O)N[C@@H](C(=O)N[C@H](CC(=O)O)C(=O)N[C@@H](C(=O)N[C@H](CC(C)C)C(=O)N[C@H](CC(C)C)C(=O)N[C@H](CC(C)C)C(=O)N[C@H](CC(=O)O)C(=O)N[C@H](CC(C)C)C(=O)N[C@H](CC(C)C)C(=O)N[C@H](Cc2c[nH]c3ccccc23)C(=O)O)[C@H](C)O)[C@H](C)O)C1=O` (stereo partly drawn) [[^89Zr]Zr-DFO-cys-Var3pHLIP, metal not drawn] (H-[dA][dC](X1)[dD][dD][dQ][dN][dP][dW][dR][dA][dY][dL][dD][dL][dL][dF][dP][dT][dD][dT][dL][dL][dL][dD][dL][dL][dW]-OH; N-terminus and C-terminus assumed) the tissue uptake (in vivo [1]) was ~15 %ID/g, the “time until which tumor uptake continues to increase” value (4T1 tumors) was “approximately 48 h” and the circulatory half-life (4T1 tumors; 5 ug) was “long circulatory half-life”. For the same compound, the tissue uptake at 48 h (in vivo [2]; Femur) was 1.4 ± 0.1 %ID/g and the tissue uptake at 48 h (in vivo [2]; Muscle) was 0.6 ± 0.7 %ID/g.
